Reference: PMC9482650, “Quantitative fragmentomics allow affinity mapping of interactomes” (Nature Communications, 2022)

How the values were obtained:
Assay in all cases: holdup assay
Set-up in all cases: key: below the threshold = too weak to quantify, mostly under pKd 3.1 to 4
[1] = target: SNX27, Q96L92; details: modified: phosphorylated residue at S732 (position -3 from the C-terminal residue); phosphorylated residue at T734 (position -1 from the C-terminal residue)
[2] = target: PARD3B_1, Q8TEW8
[3] = target: ARHGEF12, Q9NZN5-2; details: modified: phosphorylated residue at S732 (position -3 from the C-terminal residue); phosphorylated residue at T734 (position -1 from the C-terminal residue)
Chain of ARHGEF12, Q9NZN5-2 (Q9NZN5 other isoform, or with tags, fused parts or gaps): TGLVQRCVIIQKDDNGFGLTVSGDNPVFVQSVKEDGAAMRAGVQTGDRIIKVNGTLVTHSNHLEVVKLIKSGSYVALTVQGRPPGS

[4] = target: PDZRN4_1, Q6ZMN7; details: modified: O-phospho-L-serine at S732 (position -3 from the C-terminal residue); O-phospho-L-threonine at T734 (position -1 from the C-terminal residue)
Chain of PDZRN4_1, Q6ZMN7 (Q6ZMN7 213-318): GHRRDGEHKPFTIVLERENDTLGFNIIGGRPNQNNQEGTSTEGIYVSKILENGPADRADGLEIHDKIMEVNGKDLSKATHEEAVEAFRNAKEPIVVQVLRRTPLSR

[5] = target: MAGI2_2, Q86UL8
Chain of MAGI2_2, Q86UL8 (Q86UL8 410-522): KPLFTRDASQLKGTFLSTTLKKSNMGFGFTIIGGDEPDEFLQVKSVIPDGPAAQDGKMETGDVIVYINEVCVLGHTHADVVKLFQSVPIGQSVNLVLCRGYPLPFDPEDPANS

[6] = target: SCRIB_1, Q14160; details: modified: O-phospho-L-serine at S732 (position -3 from the C-terminal residue); O-phospho-L-threonine at T734 (position -1 from the C-terminal residue)
Chain of SCRIB_1, Q14160 (Q14160 718-814): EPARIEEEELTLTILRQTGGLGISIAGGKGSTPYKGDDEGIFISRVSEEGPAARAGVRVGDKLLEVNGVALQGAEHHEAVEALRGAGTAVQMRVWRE

[7] = target: SNTG2, Q9NY99; details: modified: phosphorylated residue at S732 (position -3 from the C-terminal residue); phosphorylated residue at T734 (position -1 from the C-terminal residue)
Chain of SNTG2, Q9NY99 (Q9NY99 70-159): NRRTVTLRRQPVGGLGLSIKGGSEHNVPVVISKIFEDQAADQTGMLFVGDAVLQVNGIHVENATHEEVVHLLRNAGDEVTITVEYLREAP

[8] = target: MAGI3_2, Q5TCQ9; details: modified: O-phospho-L-serine at S732 (position -3 from the C-terminal residue); O-phospho-L-threonine at T734 (position -1 from the C-terminal residue)
Chain of MAGI3_2, Q5TCQ9 (Q5TCQ9 398-503): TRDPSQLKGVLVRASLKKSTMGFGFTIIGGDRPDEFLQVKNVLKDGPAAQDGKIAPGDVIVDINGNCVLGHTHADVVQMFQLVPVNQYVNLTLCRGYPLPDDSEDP

[9] = target: PDZD7_3, Q9H5P4; details: modified: phosphorylated residue at S732 (position -3 from the C-terminal residue); phosphorylated residue at T733 (position -2 from the C-terminal residue); phosphorylated residue at T734 (position -1 from the C-terminal residue)
Chain of PDZD7_3, Q9H5P4 (Q9H5P4 858-953): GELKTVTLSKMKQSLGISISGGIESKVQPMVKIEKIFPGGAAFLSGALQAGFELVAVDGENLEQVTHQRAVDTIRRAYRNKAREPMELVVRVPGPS

[10] = target: SNTB1, Q13884; details: modified: O-phospho-L-serine at S732 (position -3 from the C-terminal residue); phosphorylated residue at T734 (position -1 from the C-terminal residue)
Chain of SNTB1, Q13884 (Q13884 107-196): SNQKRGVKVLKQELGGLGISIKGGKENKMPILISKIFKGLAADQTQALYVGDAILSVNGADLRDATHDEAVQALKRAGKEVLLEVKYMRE

[11] = target: SYNJ2BP, P57105
[12] = target: SNTA1, Q13424; details: modified: O-phospho-L-serine at S732 (position -3 from the C-terminal residue); O-phospho-L-threonine at T734 (position -1 from the C-terminal residue)
Chain of SNTA1, Q13424 (Q13424 84-171): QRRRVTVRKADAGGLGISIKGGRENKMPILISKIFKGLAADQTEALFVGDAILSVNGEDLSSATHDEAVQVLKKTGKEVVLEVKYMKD

[13] = target: PTPN3, P26045; details: modified: O-phospho-L-serine at S732 (position -3 from the C-terminal residue); O-phospho-L-threonine at T734 (position -1 from the C-terminal residue)
Chain of PTPN3, P26045 (P26045 505-587): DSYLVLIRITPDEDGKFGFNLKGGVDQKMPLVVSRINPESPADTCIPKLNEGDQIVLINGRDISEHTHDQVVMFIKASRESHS

[14] = target: SCRIB_3, Q14160
[15] = target: MAST2, Q6P0Q8
[16] = target: HTRA1, Q92743; details: modified: phosphorylated residue at T733 (position -2 from the C-terminal residue); phosphorylated residue at T734 (position -1 from the C-terminal residue)
Chain of HTRA1, Q92743 (Q92743 365-480): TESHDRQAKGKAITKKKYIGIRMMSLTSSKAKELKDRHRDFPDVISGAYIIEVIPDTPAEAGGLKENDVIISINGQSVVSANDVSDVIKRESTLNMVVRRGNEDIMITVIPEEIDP

[17] = target: APBA2_1, Q99767; details: plain residues with an end cap or a label only
Chain of APBA2_1, Q99767 (Q99767 565-653): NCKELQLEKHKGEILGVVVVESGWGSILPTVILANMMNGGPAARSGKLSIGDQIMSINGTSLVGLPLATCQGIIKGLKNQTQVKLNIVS

[18] = target: AHNAK1, Q09666; details: plain residues with an end cap or a label only
Chain of AHNAK1, Q09666 (Q09666 2-98): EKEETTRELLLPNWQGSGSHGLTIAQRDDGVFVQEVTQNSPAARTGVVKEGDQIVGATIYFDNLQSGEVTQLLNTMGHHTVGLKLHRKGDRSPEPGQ

[19] = target: IL16_4, Q14005; details: plain residues with an end cap or a label only (N-terminal biotin on a linker: ado-ado)
Chain of IL16_4, Q14005 (Q14005 1229-1329): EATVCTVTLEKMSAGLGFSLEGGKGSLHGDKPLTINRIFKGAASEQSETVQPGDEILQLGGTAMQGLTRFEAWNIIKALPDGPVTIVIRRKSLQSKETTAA

[20] = target: T1, LIN7B, Q9HAP6; details: plain residues with an end cap or a label only (N-terminal biotin on a linker: ado-ado)
T1 sequence (Q9HAP6 88-185, limits assumed, looked up): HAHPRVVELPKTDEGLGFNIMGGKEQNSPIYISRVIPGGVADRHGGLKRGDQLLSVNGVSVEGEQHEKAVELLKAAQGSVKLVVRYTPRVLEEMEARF

[21] = target: T2, MPP6, Q9NZW5; details: plain residues with an end cap or a label only (N-terminal biotin on a linker: ado-ado)
T2 sequence (Q9NZW5 125-219, limits assumed, looked up): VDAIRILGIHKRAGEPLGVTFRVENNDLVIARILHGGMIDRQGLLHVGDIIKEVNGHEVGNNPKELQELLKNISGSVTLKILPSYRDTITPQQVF

[22] = target: T3, NHERF3_1, Q5T2W1; details: plain residues with an end cap or a label only (N-terminal biotin on a linker: ado-ado)
T3 sequence (Q5T2W1 4-100, limits assumed, looked up): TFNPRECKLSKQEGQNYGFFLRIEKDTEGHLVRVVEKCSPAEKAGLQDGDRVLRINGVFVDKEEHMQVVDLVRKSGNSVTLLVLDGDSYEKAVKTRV

[23] = target: GRASP, Q7Z6J2; details: plain residues with an end cap or a label only (N-terminal biotin on a linker: ado-ado)
Chain of GRASP, Q7Z6J2 (Q7Z6J2 96-193): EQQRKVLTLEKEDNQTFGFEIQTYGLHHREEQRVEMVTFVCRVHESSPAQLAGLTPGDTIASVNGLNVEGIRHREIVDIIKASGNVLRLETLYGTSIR

[24] = target: NHERF4_4, Q86UT5; details: plain residues with an end cap or a label only (N-terminal biotin on a linker: ado-ado)
Chain of NHERF4_4, Q86UT5 (Q86UT5 464-550): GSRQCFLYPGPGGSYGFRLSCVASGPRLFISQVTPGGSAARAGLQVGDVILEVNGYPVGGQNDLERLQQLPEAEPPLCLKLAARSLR

[25] = target: DLG2_3, Q15700; details: plain residues with an end cap or a label only (N-terminal biotin on a linker: ado-ado)
[26] = target: DLG1_2, Q12959; details: plain residues with an end cap or a label only (N-terminal biotin on a linker: ado-ado)
Chain of DLG1_2, Q12959 (Q12959 314-412): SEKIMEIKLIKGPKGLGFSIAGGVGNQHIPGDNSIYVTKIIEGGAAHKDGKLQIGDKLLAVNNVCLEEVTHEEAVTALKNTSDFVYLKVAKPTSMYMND

[27] = target: MAGI2_4, Q86UL8; details: plain residues with an end cap or a label only (N-terminal biotin on a linker: ado-ado)
Chain of MAGI2_4, Q86UL8 (Q86UL8 772-865): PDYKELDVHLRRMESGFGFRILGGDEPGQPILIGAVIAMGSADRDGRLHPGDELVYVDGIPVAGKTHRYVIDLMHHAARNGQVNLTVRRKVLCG

[28] = target: FRMPD4, Q14CM0; details: plain residues with an end cap or a label only (N-terminal biotin on a linker: ado-ado)
Chain of FRMPD4, Q14CM0 (Q14CM0 67-160): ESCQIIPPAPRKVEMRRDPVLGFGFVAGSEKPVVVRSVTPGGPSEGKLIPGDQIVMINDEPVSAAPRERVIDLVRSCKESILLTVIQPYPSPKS

[29] = target: PARD3_3, Q8TEW0; details: plain residues with an end cap or a label only (N-terminal biotin on a linker: ado-ado)
Chain of PARD3_3, Q8TEW0 (Q8TEW0 582-685): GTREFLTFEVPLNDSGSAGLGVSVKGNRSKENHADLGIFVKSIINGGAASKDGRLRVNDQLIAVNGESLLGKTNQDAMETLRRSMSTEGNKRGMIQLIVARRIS

[30] = target: NHERF4_2, Q86UT5; details: plain residues with an end cap or a label only (N-terminal biotin on a linker: ado-ado)
Chain of NHERF4_2, Q86UT5 (Q86UT5 220-308): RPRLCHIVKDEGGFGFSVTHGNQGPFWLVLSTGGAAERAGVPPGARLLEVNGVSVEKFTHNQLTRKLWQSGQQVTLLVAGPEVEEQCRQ

[31] = target: APBA1_2, Q02410; details: plain residues with an end cap or a label only
Chain of APBA1_2, Q02410 (Q02410 742-822): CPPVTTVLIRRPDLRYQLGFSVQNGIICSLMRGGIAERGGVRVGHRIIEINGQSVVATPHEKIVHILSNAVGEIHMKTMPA

[32] = target: APBA1_1, Q02410; details: plain residues with an end cap or a label only
Chain of APBA1_1, Q02410 (Q02410 other isoform, or with tags, fused parts or gaps): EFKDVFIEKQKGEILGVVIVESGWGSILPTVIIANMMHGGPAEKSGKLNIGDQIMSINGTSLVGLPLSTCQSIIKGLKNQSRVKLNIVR

[33] = modified: O-phospho-L-serine at S732 (position -3 from the C-terminal residue), O-phospho-L-threonine at T734 (position -1 from the C-terminal residue)
[34] = plain residues with an end cap or a label only (N-terminal biotin on a linker: ado-ado)

B1: a stretch of Q15418, Q15418 (peptide)
chain: RVRKLPSTTL
pKd [1]: below the threshold | pKd ([2]; modified: phosphorylated residue at S732 (position -3 from the C-terminal residue), phosphorylated residue at T733 (position -2 from the C-terminal residue), phosphorylated residue at T734 (position -1 from the C-terminal residue)): below the threshold | pKd [3]: below the threshold | pKd [4]: below the threshold | pKd ([5]; modified: O-phospho-L-threonine at T734 (position -1 from the C-terminal residue), phosphorylated residue at S732 (position -3 from the C-terminal residue)): below the threshold | pKd [6]: below the threshold | pKd [7]: below the threshold | pKd [8]: below the threshold | pKd [9]: below the threshold | pKd [10]: below the threshold | pKd [11, 33]: below the threshold | pKd [12]: below the threshold | pKd [13]: below the threshold | pKd [14, 33]: below the threshold | pKd [15, 33]: below the threshold | pKd [16]: below the threshold

B2: a stretch of P69706, P69706 (peptide)
chain: RRSQSRESQC
pKd [17]: below the threshold

B3: a stretch of P03146, P03146 (peptide)
chain: RRSQSRESQC
pKd [18]: below the threshold

B4: HNRNPK, P61978 (peptide)
chain: VKQYADVEGF
pKd [19]: 3.51 | pKd [5, 34]: 3.56 | pKd [20]: 3.61 | pKd [21]: 3.7 | pKd [22]: 3.53 | pKd [23]: 3.76 | pKd [24]: 3.72 | pKd [25]: 3.55 | pKd [26]: 3.72 | pKd [15, 34]: 3.87

B5: PALLS, Q8WX93 (peptide)
chain: NTALVESEDL
pKd [2, 34]: 3.58 | pKd [27]: 3.59 | pKd [19]: 3.57 | pKd [28]: 3.65 | pKd [29]: 3.61 | pKd [11, 34]: 3.49 | pKd [14, 34]: 3.73 | pKd [30]: 3.48

B6: a stretch of P03149, P03149 (peptide)
chain: RRSQSRESQC
pKd [31]: below the threshold

B7: a stretch of P03148, P03148 (peptide)
chain: RRSQSRESQC
pKd [32]: below the threshold
